These results are taken from patent US20140220589.

This data set has as its target T1, H11 peptide FLVMFLSG (SEQ. ID. NO.: 1) (not fully specified).
T1 chain: FLVMFLSG

B1: streptococcal pyogenix exotoxin B (SpeB) (protein)
chain: QPVVKSLLDSKGIHYNQGNPYNLLTPVIEKVKPGEQSFVGQHAATGCVATATAQIMKYHNYPNKGLKDYTYTLSSNNPYFNHPKNLFAAISTRQYNWNNILPTYSGRESNVQKMAISELMADVGISVDMDYGPSSGSAGSSRVQRALKENFGYNQSVHQINRGDFSKQDWEAQIDKELSQNQPVYYQGVGKVGGHAFVIDGADGRNFYHVNWGWGGVSDGFFRLDALNPSALGTGGGAGGFNGYQSAVVGIKP
On to B1, for which the “proteolytic activity in a microplate assay (rate of color development, mOD/min); lower limit of detection” value is on record as “The lower limit of detection was 100 pg of purified SpeB”.
